The text below walks through data of US20100260765A1 (AstraZeneca / MedImmune, published 2010).

One may read the Kd as the concentration at which binding is half-saturated. Higher therefore signals weaker binding. For orientation: koff means the first-order rate constant of dissociation. A lower koff goes with slow dissociation. As usually defined, the kon is a measure of how fast the partners come together. Low values mean slower complex formation, high ones faster complex formation.

The target of experiment [1] is T1, KDR (antigen used as analyte in the Biacore assay) (UniProt P35968 20-764, limits assumed).
T1 construct: also called the antigen KDR
Put plainly: SPR, Biacore 2000; antibody amine-coupled on CM4 chip, KDR as analyte; global 1:1 fit; 23 C. As for the experimental part: Each purified anti-KDR antibody was immobilized on a CM4 sensor chip within a Biacore 2000 using standard amine coupling. Immobilization levels were kept between 250 and 350 RU. The concentration of KDR was determined by UV-VIS spectroscopy using a molar absorptivity at 280 nm of 110, 440 M⁻¹ cm⁻¹, which was calculated from the sequence of the protein using a method developed by Pace et al. (G. R. Grimsley and C. N. Pace (2003) in Current Protocols in Protein Science (John Wiley & Sons, Inc.), 3.1.1-3.1.9). The antigen KDR was diluted to a starting concentration of 52 nM and tested in a 3-fold dilution series in triplicate. The running buffer contained HBS-P with 0.1 mg/ml BSA and binding responses were collected at 23 degrees C. […] The response data were globally fit with a simple 1:1 interaction model. The number shown in parentheses is the standard error in the last significant figure.

The target of another experiment is human KDR on cells (human, UniProt P35968 20-1356). Put plainly: cell-based or functional assay.
Sequence of human KDR on cells (P35968 20-1356): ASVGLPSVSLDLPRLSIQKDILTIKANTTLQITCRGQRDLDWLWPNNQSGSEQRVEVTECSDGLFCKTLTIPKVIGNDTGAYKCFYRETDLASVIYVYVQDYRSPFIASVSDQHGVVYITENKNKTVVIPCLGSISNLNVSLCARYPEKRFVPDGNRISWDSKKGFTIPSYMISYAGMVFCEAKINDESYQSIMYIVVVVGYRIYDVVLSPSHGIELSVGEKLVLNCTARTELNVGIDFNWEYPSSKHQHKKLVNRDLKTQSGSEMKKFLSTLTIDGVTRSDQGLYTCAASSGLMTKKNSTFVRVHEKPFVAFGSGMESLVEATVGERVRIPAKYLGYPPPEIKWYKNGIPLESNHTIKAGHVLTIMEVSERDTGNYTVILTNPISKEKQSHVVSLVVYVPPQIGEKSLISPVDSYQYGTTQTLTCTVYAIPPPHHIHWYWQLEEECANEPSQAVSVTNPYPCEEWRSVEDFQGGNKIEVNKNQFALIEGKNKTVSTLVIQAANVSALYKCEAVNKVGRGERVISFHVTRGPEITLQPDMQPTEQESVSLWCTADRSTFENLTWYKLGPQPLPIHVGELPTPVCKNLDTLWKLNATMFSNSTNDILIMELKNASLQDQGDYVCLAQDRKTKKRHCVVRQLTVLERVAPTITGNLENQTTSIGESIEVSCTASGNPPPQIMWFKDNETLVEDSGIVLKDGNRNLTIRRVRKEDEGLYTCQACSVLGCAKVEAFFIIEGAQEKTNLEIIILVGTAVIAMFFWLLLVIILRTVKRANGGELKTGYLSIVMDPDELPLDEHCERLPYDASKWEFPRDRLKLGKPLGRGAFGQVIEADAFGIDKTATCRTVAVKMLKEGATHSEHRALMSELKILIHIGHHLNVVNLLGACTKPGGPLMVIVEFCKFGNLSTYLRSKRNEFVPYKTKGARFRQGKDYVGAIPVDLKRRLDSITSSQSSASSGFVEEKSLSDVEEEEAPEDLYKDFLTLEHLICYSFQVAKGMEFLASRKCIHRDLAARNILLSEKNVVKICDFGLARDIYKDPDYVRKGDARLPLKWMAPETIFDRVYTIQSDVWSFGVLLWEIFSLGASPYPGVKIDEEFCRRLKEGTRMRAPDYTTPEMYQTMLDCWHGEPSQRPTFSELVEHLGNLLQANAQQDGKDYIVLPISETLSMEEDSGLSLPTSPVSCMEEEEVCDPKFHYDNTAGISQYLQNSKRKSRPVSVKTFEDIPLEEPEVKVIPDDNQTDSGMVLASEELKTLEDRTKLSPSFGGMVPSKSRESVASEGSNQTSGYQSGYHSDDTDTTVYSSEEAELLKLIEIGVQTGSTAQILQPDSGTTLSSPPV

T1 sequence (P35968 20-764 limits assumed): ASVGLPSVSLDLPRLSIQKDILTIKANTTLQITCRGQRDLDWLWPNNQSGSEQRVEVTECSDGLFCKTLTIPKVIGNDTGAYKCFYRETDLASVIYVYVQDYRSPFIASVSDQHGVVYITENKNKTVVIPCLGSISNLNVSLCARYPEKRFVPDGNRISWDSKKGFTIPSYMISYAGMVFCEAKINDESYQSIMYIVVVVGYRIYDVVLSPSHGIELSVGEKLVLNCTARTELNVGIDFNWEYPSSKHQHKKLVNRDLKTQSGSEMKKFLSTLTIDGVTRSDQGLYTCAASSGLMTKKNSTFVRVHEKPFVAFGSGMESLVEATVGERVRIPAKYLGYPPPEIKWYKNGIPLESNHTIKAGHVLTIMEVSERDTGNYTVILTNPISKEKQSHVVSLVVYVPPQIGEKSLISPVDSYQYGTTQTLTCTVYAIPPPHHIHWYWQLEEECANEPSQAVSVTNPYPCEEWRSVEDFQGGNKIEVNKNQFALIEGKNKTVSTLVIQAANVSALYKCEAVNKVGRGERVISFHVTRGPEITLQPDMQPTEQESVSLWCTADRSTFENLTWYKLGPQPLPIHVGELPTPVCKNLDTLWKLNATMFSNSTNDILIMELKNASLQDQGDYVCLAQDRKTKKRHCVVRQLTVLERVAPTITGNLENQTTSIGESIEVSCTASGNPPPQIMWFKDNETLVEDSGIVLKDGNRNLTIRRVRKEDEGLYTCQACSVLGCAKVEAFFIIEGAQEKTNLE

B1: 24B3 (antibody, V domains shown)
VH: EVQLVESGGGLVKPGGSLRLSCAASGFTFSTYSMNWVRQAPGKGLEWVSFISGRSSYIYYADSVKGRFTISRDNAKNSLYLQMNSLRAEDTAVYYCSKDDWFEELWGQGTLVTVSS
VL: DIQMTQSPSSLSASVGDRVTITCRASQGIRSDLGWYQQKPGKAPKRLIYATSSLQSGVPSRFSGSGSGTEFTLTISSLQPEDFATYYCLQHNRYPWTFGQGTKVEIK
notes: Purified fully human monoclonal antibody from XenoMouse hybridoma (IgG2 or IgG4 strains); also called MAb 24B3
Take B1: in experiment [1], the Kd turned out to be 1.09 nM, the koff turned out to be 0.000191 s⁻¹ and the kon was 175000 M⁻¹ s⁻¹. For the same molecule, in the experiment with human KDR on cells, the “% Inhibition (Average) of VEGF-C-mediated KDR activity, antibody 1 nM” value amounted to 30%; the “% Inhibition (Average) of VEGF-C-mediated KDR activity, antibody 10 nM” value amounted to 62%; the “% Inhibition (Average) of VEGF-C-mediated KDR activity, antibody 100 nM” value was determined as 71%; the “% Inhibition (N = 1) of VEGF-C-mediated KDR activity, antibody 1 nM” value was found to be 26%. In the experiment with human KDR on cells, the “% Inhibition (N = 1) of VEGF-C-mediated KDR activity, antibody 10 nM” value amounted to 61%; the “% Inhibition (N = 1) of VEGF-C-mediated KDR activity, antibody 100 nM” value was determined as 67%; the “% Inhibition (N = 2) of VEGF-C-mediated KDR activity, antibody 1 nM” value is 34%; the “% Inhibition (N = 2) of VEGF-C-mediated KDR activity, antibody 10 nM” value is 62%. Also, the “% Inhibition (N = 2) of VEGF-C-mediated KDR activity, antibody 100 nM” value in the experiment with human KDR on cells stood at 75%.
